± gives the uncertainty stated by the source.
B1: Ankyrin repeat and SAM domain-containing protein 6, residues 774 to 836; numbered along this chain, Q68DC2 (parent)
chain: DEDELTGILKKLSLEKYQPIFEEQEVDMEAFLTLTDGDLKELGIKTDGSRQQILAAISELNAG

Variants of: B1
Assay: abundance fitness (aPCA) (normalised: wild type 0, dead -1); higher = more abundant; growth selection in yeast, the domain comes from the species named
Settings: Homo sapiens

Variant | abundance fitness
DEDELTGILKKLSLEKYQPIFEEQEVDMEAFLTLTDGDLKELGIKTDGSRDQILAAISELNAG [Q51D] | -0.076 ± 0.076
DEDELTGILKKLSLEKYQPIFEEQEVDMEAFLTLTDGDLKELGIKTDGSRCQILAAISELNAG [Q51C] | -0.379 ± 0.068
DEDELTGILKKLSLEKYQPIFEEQEVDMEAFLTLTDGDLKELGIKTDGSRLQILAAISELNAG [Q51L] | -0.252 ± 0.043
DEDELTGILKKLSLEKYQPIFEEQEVDMEAFLTLTDGDLKELGIKTDGSRPQILAAISELNAG [Q51P] | -0.54 ± 0.059
DEDELTGILKKLSLEKYQPIFEEQEVDMEAFLTLTDGDLKELGIKTDGSRMQILAAISELNAG [Q51M] | -0.215 ± 0.053
DEDELTGILKKLSLEKYQPIFEEQEVDMEAFLTLTDGDLKELGIKTDGSRAQILAAISELNAG [Q51A] | -0.084 ± 0.046
DEDELTGILKKLSLEKYQPIFEEQEVDMEAFLTLTDGDLKELGIKTDGSRGQILAAISELNAG [Q51G] | -0.216 ± 0.044
DEDELTGILKKLSLEKYQPIFEEQEVDMEAFLTLTDGDLKELGIKTDGSRNQILAAISELNAG [Q51N] | -0.044 ± 0.08
DEDELTGILKKLSLEKYQPIFEEQEVDMEAFLTLTDGDLKELGIKTDGSRRQILAAISELNAG [Q51R] | -0.092 ± 0.041
DEDELTGILKKLSLEKYQPIFEEQEVDMEAFLTLTDGDLKELGIKTDGSREQILAAISELNAG [Q51E] | -0.128 ± 0.062
DEDELTGILKKLSLEKYQPIFEEQEVDMEAFLTLTDGDLKELGIKTCGSRQQILAAISELNAG [D47C] | -0.128 ± 0.049
DEDELTGILKKLSLEKYQPIFEEQEVDMEAFLTLTDGDLKELGIKTEGSRQQILAAISELNAG [D47E] | 0.056 ± 0.054
DEDELTGILKKLSLEKYQPIFEEQEVDMEAFLTLTDGDLKELGIKTQGSRQQILAAISELNAG [D47Q] | -0.054 ± 0.054
DEDELTGILKKLSLEKYQPIFEEQEVDMEAFLTLTDGDLKELGIKTRGSRQQILAAISELNAG [D47R] | -0.149 ± 0.033
DEDELTGILKKLSLEKYQPIFEEQEVDMEAFLTLTDGDLKELGIKTHGSRQQILAAISELNAG [D47H] | 0.042 ± 0.074
DEDELTGILKKLSLEKYQPIFEEQEVDMEAFLTLTDGDLKELGIKTWGSRQQILAAISELNAG [D47W] | -0.309 ± 0.07
DEDELTGILKKLSLEKYQPIFEEQEVDMEAFLTLTDGDLKELGIKTAGSRQQILAAISELNAG [D47A] | -0.061 ± 0.045
DEDELTGILKKLSLEKYQPIFEEQEVDMEAFLTLTDGDLKELGIKTLGSRQQILAAISELNAG [D47L] | -0.089 ± 0.042
DEDELTGILKKLSLEKYQPIFEEQEVDMEAFLTLTDGDLKELGIKTTGSRQQILAAISELNAG [D47T] | -0.029 ± 0.054
DEDELTGILKKLSLEKYQPIFEEQEVDMEAFLTLTDGDLKELGIKTVGSRQQILAAISELNAG [D47V] | -0.049 ± 0.049
DEDELTGILKKLSLEKYQPIFEEQEVDMEAFLTLTDGDLKELGIKTSGSRQQILAAISELNAG [D47S] | -0.114 ± 0.044

Variant | abundance fitness
DEDELTGILKKLSLEKYQPIFEEQEVDMEAFLTLTDGDLKELGIKTMGSRQQILAAISELNAG [D47M] | -0.138 ± 0.071
DEDELTGILKKLSLEKYQPIFEEQEVDMEAFLTLTDGDLKELGIKTNGSRQQILAAISELNAG [D47N] | -0.126 ± 0.067
DEDELTGILKKLSLEKYQPIFEEQEVDMEAFLTLTDGDLKELGIKTGGSRQQILAAISELNAG [D47G] | -0.158 ± 0.053
DEDELTGILKKLSLEKYQPIFEEQEVDMEAFLTLTDGDLKELGIKTFGSRQQILAAISELNAG [D47F] | -0.14 ± 0.058
DEDELTGILKKLSLEKYQPIFEEQEVDMEAFLTLTDGDLKELGIKTYGSRQQILAAISELNAG [D47Y] | -0.114 ± 0.083
DEDELTGILKKLSLEKYQPIFEEQEVDMEAFLTLTDGDLKELGIKTIGSRQQILAAISELNAG [D47I] | -0.058 ± 0.087
DEDELTGILKKLSLEKYQPIFEEQEVDMEAFLTLTDGDLKELGIKTKGSRQQILAAISELNAG [D47K] | -0.126 ± 0.085
DEDELTGILKKLSLEKYQPIFEEQEVDMEAFLTLTDGDLKELGIKLDGSRQQILAAISELNAG [T46L] | -0.116 ± 0.044
DEDELTGILKKLSLEKYQPIFEEQEVDMEAFLTLTDGDLKELGIKWDGSRQQILAAISELNAG [T46W] | -0.521 ± 0.086
DEDELTGILKKLSLEKYQPIFEEQEVDMEAFLTLTDGDLKELGIKYDGSRQQILAAISELNAG [T46Y] | -0.197 ± 0.067
DEDELTGILKKLSLEKYQPIFEEQEVDMEAFLTLTDGDLKELGIKKDGSRQQILAAISELNAG [T46K] | 0.061 ± 0.068
DEDELTGILKKLSLEKYQPIFEEQEVDMEAFLTLTDGDLKELGIKQDGSRQQILAAISELNAG [T46Q] | -0.201 ± 0.07
DEDELTGILKKLSLEKYQPIFEEQEVDMEAFLTLTDGDLKELGIKPDGSRQQILAAISELNAG [T46P] | -0.048 ± 0.063
DEDELTGILKKLSLEKYQPIFEEQEVDMEAFLTLTDGDLKELGIKVDGSRQQILAAISELNAG [T46V] | -0.138 ± 0.053
DEDELTGILKKLSLEKYQPIFEEQEVDMEAFLTLTDGDLKELGIKSDGSRQQILAAISELNAG [T46S] | 0.017 ± 0.041
DEDELTGILKKLSLEKYQPIFEEQEVDMEAFLTLTDGDLKELGIKMDGSRQQILAAISELNAG [T46M] | -0.039 ± 0.062
DEDELTGILKKLSLEKYQPIFEEQEVDMEAFLTLTDGDLKELGIKNDGSRQQILAAISELNAG [T46N] | -0.159 ± 0.091
DEDELTGILKKLSLEKYQPIFEEQEVDMEAFLTLTDGDLKELGIKTDGSTQQILAAISELNAG [R50T] | -0.71 ± 0.076
DEDELTGILKKLSLEKYQPIFEEQEVDMEAFLTLTDGDLKELGIKTDGSQQQILAAISELNAG [R50Q] | -0.621 ± 0.085
DEDELTGILKKLSLEKYQPIFEEQEVDMEAFLTLTDGDLKELGIKTDGSGQQILAAISELNAG [R50G] | -0.677 ± 0.039
DEDELTGILKKLSLEKYQPIFEEQEVDMEAFLTLTDGDLKELGIKTDGSSQQILAAISELNAG [R50S] | -0.524 ± 0.048

Reference: the Human Domainome abundance scans (Beltran et al. 2025)
